Results on 7 molecules are retold here after US20240093191A1, “COMPOSITIONS AND METHODS FOR TREATING DISEASE ASSOCIATED WITH DUX4 OVEREXPRESSION” (RESEARCH INSTITUTE AT NATIONWIDE CHILDREN'S HOSPITAL, priority 2021, published 2024).

The subject of one series is mir-675. Conditions: published gene expression studies; cited from earlier work.
The subject of series [1] is DUX4 ORF (RenLuc-DUX4 ORF). In words: Dual-luciferase assay, RenLuc-DUX4 ORF reporter co-transfected with miDUX4 plasmids in HEK293 cells. The class given is cell-based, human. As to conditions: DUX4:mi405 molar ratio 2 to 1; HEK293; 24 h; normalized to U6.miGFP. The procedure: Dual Luciferase Assay. (See also FIGS. 1A, 3A-B, 4A-B, 5B, and 16B-C.) This assay was performed as previously described by Wallace et al. (Mol. Ther. Methods Clin. Dev. 8: 121-30 (2018)) and following the dual-luciferase reporter assay system (Promega) protocol with some modifications. All plasmid constructs had the psiCheck2 dual luciferase reporter plasmid (Promega) as backbone that contains separate Renilla and Firefly luciferase genes, where the former contains the various target sequences used in the experiments of the disclosure, and the latter serves as a transfection normalizer (control). All DUX4 and control sequences were cloned downstream of the Renilla luciferase stop codon, serving as a 3′UTR. HEK293 cells were pre-plated 24h before transfection. Cells were then co-transfected with the luciferase DUX4 reporter and individual microRNA expression plasmids in an increasing luciferase DUX4 reporter:miRNA molar ratio using Lipofectamine 2000 (Invitrogen). Luciferase activity was measured 24h or 48h after transfection. DUX4 gene silencing was determined as previously described [Wallace et al., Mol. Ther. Methods Clin. Dev. 8: 121-30 (2018)]. Triplicate data were averaged per experiment, and individual experiments were performed 3 times. Results were reported as the average ratio of Renilla to Firefly luciferase activity±SEM for all combined experiments.
Accordingly, two new mi405 constructs, i.e., mi405F and mi405NF, were designed. […] To assess the inhibition efficiency of the three mi405 constructs, a dual-luciferase assay and western blot analysis, similar to what was described for mir-675, were carried out. In the dual-luciferase assay, U6.mi405, U6.mi405F, or U6.mi405NF was co-transfected into HEK293 cells along with the RenLuc-DUX4 ORF (a construct expressing the open reading frame of DUX4 as a 3′UTR sequence of Renilla Luciferase). 24 h after transfection, U6.mi405, U6.mi405F, and U6.mi405NF reduced the relative Renilla luciferase activity by 85±1%, 89±1%, and 66±1% (P<0.0001, ANOVA, N=3), respectively, when tested against the RenLuc-DUX4 ORF construct.

A further series concerns mi405 mature sequence. In words: QPCR of mature mi405 (standard TaqMan cDNA synthesis) in HEK293 cells. The class given is cell-based, human. As to conditions: 24 h after transfection; for reduction of mature mi405 sequence expression relative to U6.mi405: normalized to RPL13A. The procedure: TaqMan Gene Expression Assay. QRT-PCR was carried out to quantify the expression of pri-mir-675, mir-675-5p and mi405 using TaqMan probes (ThermoFisher Scientific). Experiments were started by eliminating genomic DNA from the RNA preparations, and then cDNA was generated using the High-Capacity cDNA Reverse Transcription Kit (Applied Biosystems) following manufacturer's instructions. Within the same cDNA reaction, 1×RT random hexamer primers were used to generate the cDNA for RPL13A, used as a reference gene, and for pri-mir-675. To generate the cDNA for mir-675, the RT mir-675 reverse primer provided by ThermoFisher Scientific was used. For mi405, the mi405 qPCR protocol was done as it was previously described [Wallace et al., Mol. Ther. Methods Clin. Dev. 8: 121-30 (2018)]. To quantify mir-675 and mi405 levels, RNA was extracted using the total RNA protocol for the mirVana miRNA Isolation Kit (Ambion) from HEK293 cells. cDNA was generated using the High-Capacity cDNA Reverse Transcription Kit (Applied Biosystems) using a mix of random hexamer primers and specific reverse primer for pri-mir-675 and mir-675-5p. For mi405, 200 nM of the stem-loop forming primer (5′-[…]-3′) (SEQ ID NO: 144) was also used for the RT step. A custom TaqMan assay (Applied Biosystems) including 1.5 μM of Forward primer (5′-[…]-3′) (SEQ ID NO: 145), 0.7 μM of Reverse primer (5′-GTGCAGGGTCCGAGGT-3′) (SEQ ID NO: 146), and 0.2 μM of mi405 probe (5′-6FAM-ATACGACGTCCAGGAT-3′) (SEQ ID NO: 147) was then run using the CFX Connect Real Time system apparatus (Bio-Rad). RPL13A (Mm02526700_g1; Applied Biosystems) served as the reference gene. The TaqMan gene expression assay consisted of using the TaqMan Gene Expression Master mix and TaqMan probes purchased from ThermoFisher Scientific. 1× of probe was mixed with 1× of the TaqMan Gene Expression Master mix (ThermoFisher Scientific), and with 20 ng of cDNA. The mir-675- and mi405-specific primers and probes were designed to quantify only the mir-675-5p and mi405 mature sequence (see TaqMan Gene Expression Master mix protocol).
Apart from the effect on the inhibition efficiency of mi405, the effect of the flanking sequences on the expression of the miRNA also was tested. Therefore, the expression of the processed mature mi405 sequences was quantified using the standard and advanced TaqMan cDNA synthesis reaction. In the former reaction, a reverse primer detects the mature mi405 sequence following a stem-loop primer-based small RNA detection principle (ThermoFisher Scientific) (Jung et al., RNA (2013) 19: 1-10). The amplification and quantification steps were then performed using a standard TaqMan probe specific to mi405 that base pairs at the junction between the mi405 mature sequence and the reverse primer sequence (FIG. 6A). […] In the TaqMan advanced cDNA synthesis reaction, the mature sequence is extended through ligation of an adaptor sequence at the 5′ end and through the enzymatic addition of a polyA tail at the 3′ end of the mature mi405 sequence. The amplification and quantification steps were then performed using a TaqMan advanced probe specific to mi405 that normally base pairs with the 3′ end of the mature miRNA and with part of the adaptor sequence. Here, an additional TaqMan advanced probe (embedded probe) that only base pairs with the mature sequence of mi405 (FIG. 6B) was used. As a result, following TaqMan advanced cDNA synthesis reaction, droplet digital PCR (ddPCR) was performed to quantify mi405, mi405F, mi405B, mi405C, mi405G and mi405H expression levels. For this, TaqMan advanced embedded and overlapped mi405 probes (FIG. 6B) were used.
Background: Quantitative PCR measures a nucleic acid by following its amplification.

For estrogen, the mir-675 expression result in the series on mir-675 is “mir-675 was induced”.

bleomycin: the mir-675 expression entry with mir-675 is “upregulated mir-675 expression”.

B1: U6.mi405D: mi405 construct with altered flanking sequences (nucleic acid)
DNA: ACGCCGCCATCTCTAGGCCCGCGCCGGCCCCCTCGCACAGACTTGTGGGAGAAGCTCGGCTACTCCCCTGCCCCGGTTAATTTGCATATAATATTTCCTAGTAACTATAGAGGCTTAATGTGCGATAAAAGACAGATAATCTGTTCTTTTTAATACTAGCTACATTTTACATGATAGGCTTGGATTTCTATAAGAGATACAAATACTAAATTATTATTTTAAAAAACAGCACAAAAGGAAACTCACCCTAACTGTAAAGTAATTGTGTGTTTTGAGACTATAAATATCCCTTGGAGAAAAGCCTTGTTTGACTCGAGTGAGCGATCCAGGATTCAGATCTGGTTTCTGTAAAGCCACAGATGGGAAACCAGATCTGAATCCTGGACTGCCTACTAGAGCGGCCGCCACTTTTTT
On to B1, for which, in series [1], the “reduction of Renilla luciferase activity” value is 71±1%. For the same molecule, the “levels of mature mi405 sequence compared to U6.mi405” value (from here on “levels … compared to U6.mi405”) with mi405 mature sequence was “greater or higher with the difference not being statistically significant”.

B2: U6.mi405E: mi405 construct with altered flanking sequences (nucleic acid)
DNA: ACGCCGCCATCTCTAGGCCCGCGCCGGCCCCCTCGCACAGACTTGTGGGAGAAGCTCGGCTACTCCCCTGCCCCGGTTAATTTGCATATAATATTTCCTAGTAACTATAGAGGCTTAATGTGCGATAAAAGACAGATAATCTGTTCTTTTTAATACTAGCTACATTTTACATGATAGGCTTGGATTTCTATAAGAGATACAAATACTAAATTATTATTTTAAAAAACAGCACAAAAGGAAACTCACCCTAACTGTAAAGTAATTGTGTGTTTTGAGACTATAAATATCCCTTGGAGAAAAGCCTTGTTTGACTCGAGTGAGCGATCCAGGATTCAGATCTGGTTTCTGTAAAGCCACAGATGGGAAACCAGATCTGAATCCTGGACTGCCTACTAGAGCGCACGCCAGTTTTTT
For B2, the “reduction of Renilla luciferase activity” value in series [1] is recorded as 73±1%. Also, in the series with mi405 mature sequence, the “levels … compared to U6.mi405” value is “greater or higher with the difference not being statistically significant”.

B3: U6.mi405B: mi405 construct with altered flanking sequences (nucleic acid)
DNA: ACGCCGCCATCTCTAGGCCCGCGCCGGCCCCCTCGCACAGACTTGTGGGAGAAGCTCGGCTACTCCCCTGCCCCGGTTAATTTGCATATAATATTTCCTAGTAACTATAGAGGCTTAATGTGCGATAAAAGACAGATAATCTGTTCTTTTTAATACTAGCTACATTTTACATGATAGGCTTGGATTTCTATAAGAGATACAAATACTAAATTATTATTTTAAAAAACAGCACAAAAGGAAACTCACCCTAACTGTAAAGTAATTGTGTGTTTTGAGACTATAAATATCCCTTGGAGAAAAGCCTTGTTTGACCGTTTAAACTCGAGTGAGCGATCCAGGATTCAGATCTGGTTTCTGTAAAGCCACAGATGGGAAACCAGATCTGAATCCTGGACTGCCTACTAGATTTTTT
On to B3, for which the “reduction of Renilla luciferase activity” value in series [1] was found to be 25±3%. For the same molecule, the “reduction of mature mi405 sequence expression relative to U6.mi405” value with mi405 mature sequence is 71±9%.

B4: U6.mi405C: mi405 construct with altered flanking sequences (nucleic acid)
DNA: ACGCCGCCATCTCTAGGCCCGCGCCGGCCCCCTCGCACAGACTTGTGGGAGAAGCTCGGCTACTCCCCTGCCCCGGTTAATTTGCATATAATATTTCCTAGTAACTATAGAGGCTTAATGTGCGATAAAAGACAGATAATCTGTTCTTTTTAATACTAGCTACATTTTACATGATAGGCTTGGATTTCTATAAGAGATACAAATACTAAATTATTATTTTAAAAAACAGCACAAAAGGAAACTCACCCTAACTGTAAAGTAATTGTGTGTTTTGAGACTATAAATATCCCTTGGAGAAAAGCCTTGTTTGCTCGAGTGAGCGATCCAGGATTCAGATCTGGTTTCTGTAAAGCCACAGATGGGAAACCAGATCTGAATCCTGGACTGCCTACTAGAGCGGCCGCCACTTTTTT
As to B4, the “reduction of Renilla luciferase activity” value in series [1] was found to be 64±1%. The “reduction of mature mi405 sequence expression relative to U6.mi405” value in the series on mi405 mature sequence was determined as 63±27%.

B5: U6.mi405A: mi405 construct with altered flanking sequences (nucleic acid)
DNA: ACGCCGCCATCTCTAGGCCCGCGCCGGCCCCCTCGCACAGACTTGTGGGAGAAGCTCGGCTACTCCCCTGCCCCGGTTAATTTGCATATAATATTTCCTAGTAACTATAGAGGCTTAATGTGCGATAAAAGACAGATAATCTGTTCTTTTTAATACTAGCTACATTTTACATGATAGGCTTGGATTTCTATAAGAGATACAAATACTAAATTATTATTTTAAAAAACAGCACAAAAGGAAACTCACCCTAACTGTAAAGTAATTGTGTGTTTTGAGACTATAAATATCCCTTGGAGAAAAGCCTTGTTTGACCGTTTAAACTCGAGTGAGCGATCCAGGATTCAGATCTGGTTTCTGTAAAGCCACAGATGGGAAACCAGATCTGAATCCTGGACTGCCTACTAGAGCGGCCGCCACTTTTTT
With B5, the “reduction of Renilla luciferase activity” value in series [1] was 72±1%. In addition, the “levels … compared to U6.mi405” value in the series with mi405 mature sequence is on record as “greater or higher with the difference not being statistically significant”.
